From US20170239346A1, “NOVEL COCAINE HAPTENS AND NANOFIBER-BASED COCAINE VACCINES” (priority 2016, published 2017)
Residues, ends and D or L forms follow the SMILES beside them. *: point of attachment. X1 = COC(=O)[C@H]1[C@@H](OC(=O)c2ccccc2)C[C@@H]2CC[C@H]1N2CCCCC(=O)*

Assay: Limulus amebocyte lysate (LAL) chromogenic end point endotoxin assay
Settings: same volume and concentration used for immunizations

COC(=O)[C@H]1[C@@H](OC(=O)c2ccccc2)C[C@@H]2CC[C@H]1N2CCCCC(=O)NCC(=O)NCC(=O)NCC(=O)N[C@@H](Cc1ccccc1)C(=O)N[C@@H](CCCCN)C(=O)N[C@@H](Cc1ccccc1)C(=O)N[C@@H](CCC(=O)O)C(=O)N[C@@H](Cc1ccccc1)C(=O)N[C@@H](CCCCN)C(=O)N[C@@H](Cc1ccccc1)C(=O)N[C@@H](CCC(=O)O)C(N)=O [CocKFE8] (X1-GGGFKFEFKFE-NH2)
endotoxin levels: less than 0.1 EU/mL
